From patent US20220127354A1 (Amgen, published 2022)

Tests used:
[1] = biological target: T1, muCDH19(44-362)::huCDH19(365-772) with Flag tag (construct G, Hu EC4-5) (human/mouse chimera); assay: flow cytometry, transfected 293T cells
T1 construct: leader left out; the entry starts at residue 44; also called C137917
T1 chain: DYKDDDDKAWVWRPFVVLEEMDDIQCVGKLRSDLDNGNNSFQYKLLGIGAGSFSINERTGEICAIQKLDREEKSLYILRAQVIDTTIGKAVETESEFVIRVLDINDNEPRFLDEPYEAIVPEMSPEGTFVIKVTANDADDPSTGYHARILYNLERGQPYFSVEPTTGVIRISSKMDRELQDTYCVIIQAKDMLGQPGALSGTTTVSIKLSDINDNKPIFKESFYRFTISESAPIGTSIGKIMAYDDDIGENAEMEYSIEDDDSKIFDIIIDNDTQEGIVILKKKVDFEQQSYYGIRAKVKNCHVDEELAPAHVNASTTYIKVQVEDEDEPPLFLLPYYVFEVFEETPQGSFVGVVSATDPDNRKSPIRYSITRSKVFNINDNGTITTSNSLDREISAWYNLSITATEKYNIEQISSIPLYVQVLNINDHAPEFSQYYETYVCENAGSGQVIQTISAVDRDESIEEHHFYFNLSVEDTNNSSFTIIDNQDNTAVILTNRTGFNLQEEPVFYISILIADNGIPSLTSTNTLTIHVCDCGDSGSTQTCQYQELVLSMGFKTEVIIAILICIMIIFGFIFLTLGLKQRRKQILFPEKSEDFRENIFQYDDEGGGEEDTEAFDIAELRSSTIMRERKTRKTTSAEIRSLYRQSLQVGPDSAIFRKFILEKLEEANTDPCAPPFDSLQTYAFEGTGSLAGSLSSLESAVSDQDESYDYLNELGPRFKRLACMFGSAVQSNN
Description: (§1) The experiment included assaying the anti-CDH19 antibodies against mouse Cadherin19 to determine suitability for binning on these human/mouse chimeras.

[2] = biological target: T2, muCDH19(44-770) with Flag tag (construct I, Mu EC1-5) (mouse); assay: flow cytometry, transfected 293T cells
T2 construct: leader left out; the entry starts at residue 44; also called Mo EC1-5; mouse Cadherin19
T2 chain: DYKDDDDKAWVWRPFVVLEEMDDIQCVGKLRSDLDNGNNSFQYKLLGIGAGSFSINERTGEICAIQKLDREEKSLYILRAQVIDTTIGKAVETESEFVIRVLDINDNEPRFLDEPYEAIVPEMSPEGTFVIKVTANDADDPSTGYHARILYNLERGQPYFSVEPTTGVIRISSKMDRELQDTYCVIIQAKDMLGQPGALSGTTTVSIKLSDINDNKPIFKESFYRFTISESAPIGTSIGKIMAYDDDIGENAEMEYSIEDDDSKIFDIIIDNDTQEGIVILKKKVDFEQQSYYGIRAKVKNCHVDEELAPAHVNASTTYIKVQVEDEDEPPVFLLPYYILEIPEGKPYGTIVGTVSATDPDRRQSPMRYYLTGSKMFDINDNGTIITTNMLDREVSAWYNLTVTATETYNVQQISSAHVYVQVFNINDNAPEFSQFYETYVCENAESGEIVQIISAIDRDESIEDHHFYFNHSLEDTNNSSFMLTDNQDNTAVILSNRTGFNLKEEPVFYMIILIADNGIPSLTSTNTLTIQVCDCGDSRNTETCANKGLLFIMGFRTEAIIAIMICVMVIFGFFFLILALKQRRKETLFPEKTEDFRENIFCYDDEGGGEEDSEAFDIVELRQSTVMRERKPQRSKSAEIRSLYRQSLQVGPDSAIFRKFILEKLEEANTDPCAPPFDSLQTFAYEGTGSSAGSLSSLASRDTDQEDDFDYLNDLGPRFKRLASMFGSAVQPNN
Description: as §1

binding result [1]: binds
binding result [2]: binds
B1: anti-CDH19 antibody 2G6 (Ab ID 13588) (antibody, human IgG1, lambda, V domains shown)
VH: QVQLVESGGGVVQPGRSLRLSCAASGFTFSSYGMHWVRQAPGKGLEWVAFIWYDGSNKYYADSVKDRFTISRDNSKNTLYLQMKSLRAEDTAVYYCARRAGIIGTIGYYYGMDVWGQGTTVTVSS
VL: SYELTQPPSVSVSPGQTASITCSGDRLGEKYTCWYQQRPGQSPLLVIYQDTKRPSGIPERFSGSNSGNTATLTISGTQAMDEADYYCQAWDSSTVVFGGGTKLTVLG
notes: Bin 4
